Test results reported in article PMC4038462, “PAX6 Regulates Melanogenesis in the Retinal Pigmented Epithelium through Feed-Forward Regulatory Interactions with MITF” (PLoS Genetics, 2014).

Biological target: T1, 3xFLAG-MITF (UniProt Q08874 1-526)
T1 sequence (looked up): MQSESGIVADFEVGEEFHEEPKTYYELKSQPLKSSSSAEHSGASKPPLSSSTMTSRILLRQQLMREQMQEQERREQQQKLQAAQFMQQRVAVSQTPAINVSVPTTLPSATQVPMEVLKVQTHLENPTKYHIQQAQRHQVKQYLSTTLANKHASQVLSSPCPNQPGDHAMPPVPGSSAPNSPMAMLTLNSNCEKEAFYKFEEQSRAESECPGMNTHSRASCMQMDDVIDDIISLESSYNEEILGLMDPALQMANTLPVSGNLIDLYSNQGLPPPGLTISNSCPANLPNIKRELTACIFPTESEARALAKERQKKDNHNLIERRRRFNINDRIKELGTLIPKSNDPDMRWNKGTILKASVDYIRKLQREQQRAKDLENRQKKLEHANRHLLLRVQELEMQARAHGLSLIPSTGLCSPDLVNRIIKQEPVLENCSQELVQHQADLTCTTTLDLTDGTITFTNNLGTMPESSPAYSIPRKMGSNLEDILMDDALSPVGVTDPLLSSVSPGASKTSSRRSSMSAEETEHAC
Assay: cell-based or functional assay

- luciferase reporter under the hTyr promoter in HeLa cells, fold change with MITF + PAX6 (MITF alone 12.6 fold): 71.3 fold change
- luciferase reporter under the mTyrp1 promoter in HeLa cells, fold change with MITF + PAX6 (MITF alone 5.6 fold; PAX6 alone no activation): 51.9 fold change
- luciferase reporter with four consecutive M-box elements in HeLa cells, fold activity with PAX6 and MITF together (MITF alone 6.6 fold; PAX6 alone none): 11.9 fold
B1: 3xFLAG-PAX6 (natural protein)
chain: not shown
